Results from patent US20250066483A1 (FUSO PHARMACEUTICAL INDUSTRIES, published 2025).

Tests used:
bovine FcγRI-His = target: T1, bovine FcγRI-His (bovine); experiment: ELISA: antibody immobilized at 1.56 to 50 nM, bovine FcγRI-His added at 10 µg/ml, detection with anti-polyhistidine antibody and HRP anti-mouse IgG [A]
T1 construct: extracellular domain; Made in Expi293F cells; also called soluble bovine FcγRI
Method: (§1) Subsequently, each well was washed with 200 μl of 0.05% Tween 20-supplemented PBS (PBS-T) five times, followed by blocking with SuperBlock (PBS) Blocking Buffer (Thermo Fisher Scientific) at 37° C. for 30 min. Each well was washed again in the same manner. Then, bovine FcγRI-His, FcγRII-His, FcγRIII-His or Fcγ2R-His was added to each well at a final concentration of 10 μg/ml and reacted at 37° C. for 1 hr. After washing, anti-polyhistidine tag mouse monoclonal antibody (Abcam) was reacted at 37° C. for 30 min. Subsequently, each well was washed, and horseradish peroxidase-labeled anti-mouse IgG goat polyclonal antibody (MP Biomedicals) was reacted at 37° C. for 30 min. Each well was washed again, and then TMB One Component Substrate (Bethyl) was added for coloring. Thereafter, the enzyme reaction was terminated with 0.18 M dilute sulfuric acid, and absorbance (450 nm) was measured with Microplate Reader MTP-900 (Corona Electric).

bovine FcγRII-His = target: T2, bovine FcγRII-His (bovine, UniProt Q28110 43-225); experiment: ELISA: antibody immobilized at 1.56 to 50 nM, bovine FcγRII-His added at 10 µg/ml [B]
T2 construct: extracellular domain; Made in Expi293F cells; also called soluble bovine FcγRII
T2 sequence: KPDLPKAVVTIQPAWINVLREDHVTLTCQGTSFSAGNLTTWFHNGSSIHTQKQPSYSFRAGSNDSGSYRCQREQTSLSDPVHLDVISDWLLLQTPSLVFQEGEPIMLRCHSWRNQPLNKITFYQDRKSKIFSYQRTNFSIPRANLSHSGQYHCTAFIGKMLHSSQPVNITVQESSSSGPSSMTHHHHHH
Method: as §1

bovine PD-1-His = target: T3, bovine PD-1-His (bovine); experiment: SPR (Biacore X100), bovine PD-1-His immobilised on a CM5 chip, antibody as analyte, single kinetics, 3 repeats
T3 construct: extracellular domain; Made in Expi293F cells; also called soluble bovine PD-1-His; PD-1 protein
Method: The binding avidities to bovine PD-1 of rat anti-bovine PD-1 antibody 5D2 and rat-bovine chimeric anti-bovine PD-1 antibody ch5D2 were measured by surface plasmon resonance using a biomolecular interaction analyzer (Biacore X100). Briefly, bovine PD-1-His (described above) was immobilized on a CM5 sensor chip (GE Healthcare) as a ligand. Subsequently, rat anti-bovine PD-1 antibody 5D2 or rat-bovine chimeric anti-bovine PD-1 antibody ch5D2 was reacted as an analyte, followed by single kinetics analysis. The experiment was repeated 3 times under the same conditions. Binding constant (kd value) and dissociation constant (ka value) were determined in each experiment, and binding avidity (KD value) was obtained.

[1] = target: T4, canine PD-L1 on cPD-L1-EGFP expressing COS-7 cells (canine, UniProt E2RKZ5 19-289); experiment: flow cytometry (section 2.5)
T4 construct: Transient expression in COS-7 cells; also called canine PD-L1 expressing cells; cPD-L1-EGFP expressing cell
T4 sequence: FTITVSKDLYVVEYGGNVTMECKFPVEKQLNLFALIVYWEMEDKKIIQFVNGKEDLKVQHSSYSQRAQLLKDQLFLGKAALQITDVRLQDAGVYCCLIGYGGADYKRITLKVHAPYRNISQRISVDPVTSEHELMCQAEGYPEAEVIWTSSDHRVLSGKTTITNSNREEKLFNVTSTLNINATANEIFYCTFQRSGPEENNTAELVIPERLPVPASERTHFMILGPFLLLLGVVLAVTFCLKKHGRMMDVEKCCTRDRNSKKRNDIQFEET
Method: In order to identify rat anti-bovine PD-L1 monoclonal antibody showing cross-reactivity with canine PD-L1, flow cytometry was performed using the anti-bovine PD-L1 antibody prepared in 2.1 above. The anti-bovine PD-L1 antibody (10 μg/ml) was reacted with 2×10⁵-1×10⁶ cells at room temperature for 30 min. After washing, the anti-bovine PD-L1 antibody was detected with allophycocyanine-labeled anti-rat Ig goat antibody (Beckman Coulter). FACS Verse (Becton, Dickinson and Company) was used for analysis. As negative controls, rat IgG2a (κ) isotype control (BD Biosciences), rat IgG1 (κ) isotype control (BD Biosciences) and rat IgM (κ) isotype control (BD Biosciences) were used. For every washing operation and dilution of antibodies, 10% inactivated goat serum-supplemented PBS was used (MaekawaN, Konnai S, Ikebuchi R, Okagawa T, Adachi M, Takagi S, KagawaY, Nakajima C, Suzuki Y, Murata S, Ohashi K. PLoS One. 2014 Jun. 10; 9(6):e98415 which is an article describing the use of three bovine PD-L1 monoclonal antibodies: 4G12 (Rat IgG2a (κ)), 5A2 (Rat IgG1 (κ)) and 6G7 (Rat IgM (κ)).

canine PD-L1-His = target: T5, canine PD-L1-His (canine); experiment: SPR (Biacore X100), cPD-L1-His captured by anti-histidine antibody on a CM5 chip, antibody as analyte
T5 construct: extracellular domain; Made in Expi293F cells; also called cPD-L1-His
Method: Using a biomolecular interaction analyzer (Biacore X100), the binding avidities to cPD-L1-His of rat anti-bovine PD-L1 monoclonal antibody 4G12 and rat-canine chimeric anti-PD-L1 antibody c4G12 were assessed. Briefly, anti-histidine antibody was fixed on CM5 censor chip, followed by capturing of cPD-L1-His. Subsequently, monoclonal antibodies were added as analyte to observe specific binding. […] Further, the binding avidities of canine PD-1-Ig and CD80-Ig to cPD-L1-His were measured in the same manner and found to be clearly lower than that of rat-canine chimeric anti-PD-L1 antibody c4G12 (Table 1).

[2] = target: T4, canine PD-L1 on cPD-L1-EGFP expressing …; experiment: flow cytometry on canine PD-L1 expressing cells

B1: rat-bovine chimeric anti-bovine PD-1 antibody ch5D2 having wild-type bovine IgG1 (IgG1 WT) (antibody)
heavy: QVQLKETGPGLVQPTQTLSITCTVSGFSLTSYYIQWVRQTPGKGLEWMGFIRSGGSTEYNSEFKSRLSINRDTSKNQVFLKMNSLKTEDTGVYYCARTSSGYEGGFDYWGQGVMVTVSSASTTAPKVYPLSSCCGDKSSSTVTLGCLVSSYMPEPVTVTWNSGALKSGVHTFPAVLQSSGLYSLSSMVTVPGSTSGQTFTCNVAHPASSTKVDKAVDPTCKPSPCDCCPPPELPGGPSVFIFPPKPKDTLTISGTPEVTCVVVDVGHDDPEVKFSWFVDDVEVNTATTKPREEQFNSTYRVVSALRIQHQDWTGGKEFKCKVHNEGLPAPIVRTISRTKGPAREPQVYVLAPPQEELSKSTVSLTCMVTSFYPDYIAVEWQRNGQPESEDKYGTTPPQLDADSSYFLYSKLRVDRNSWQEGDTYTCVVMHEALHNHYTQKSTSKSAGK
light: DVVLTQTPVSLSVTLGDQASISCRSSQSLEYSDGYTYLEWYLQKPGQSPQLLIYGVSNRFSGVPDRFIGSGSGTDFTLKISRVEPEDLGVYYCFQATHDPDTFGAGTKLELKQPKSPPSVTLFPPSTEELNGNKATLVCLISDFYPGSVTVVWKADGSTITRNVETTRASKQSNSKYAASSYLSLTSSDWKSKGSYSCEVTHEGSTVTKTVKPSECS
notes: Made in Expi293F cells; also called ch5D2 IgG1 WT
How did the “EC50 (read off the curve)” value (bovine FcγRI-His) turn out when B1 was run?
The value was about 9 nM.

B2: rat-bovine chimeric anti-bovine PD-1 antibody ch5D2 (mutated bovine IgG1, IgG1 ADCC-) (antibody)
heavy: QVQLKETGPGLVQPTQTLSITCTVSGFSLTSYYIQWVRQTPGKGLEWMGFIRSGGSTEYNSEFKSRLSINRDTSKNQVFLKMNSLKTEDTGVYYCARTSSGYEGGFDYWGQGVMVTVSSASTTAPKVYPLSSCCGDKSSSTVTLGCLVSSYMPEPVTVTWNSGALKSGVHTFPAVLQSSGLYSLSSMVTVPGSTSGQTFTCNVAHPASSTKVDKAVDPTCKPSPCDCCPPPPVAGPSVFIFPPKPKDTLTISGTPEVTCVVVDVGHDDPEVKFSWFVDDVEVNTATTKPREEQFNSTYRVVSALRIQHQDWTGGKEFKCKVHNEGLPSSIVRTISRTKGPAREPQVYVLAPPQEELSKSTVSLTCMVTSFYPDYIAVEWQRNGQPESEDKYGTTPPQLDADSSYFLYSKLRVDRNSWQEGDTYTCVVMHEALHNHYTQKSTSKSAGK
light: B1 light
notes: 5D2 variable regions on bovine IgG1 (modified from X62916); also called ch5D2 IgG1 ADCC-
Does B2 bind (bovine FcγRII-His)?
Result: no binding (tested: 50 nM)

And the Kd (bovine PD-1-His)?
Its Kd is 10.5 nM.

And the koff (bovine PD-1-His)?
Its koff is 0.000216 s⁻¹.

And the kon (bovine PD-1-His)?
Its kon is 20700 M⁻¹ s⁻¹.

B3: rat anti-bovine PD-L1 monoclonal antibody 4G12 (antibody, V domains shown)
VH: QVQLQQSGAELVKPGSSVKISCKASGYTFTSNFMHWVKQQPGNGLEWIGWIYPEYGNTKYNQKFDGKATLTADKSSSTAYMQLSSLTSEDSAVYFCASEEAVISLVYWGQGTLVTVSS
VL: DIAITQSPSSVAVSVGETVTLSCKSSQSLLYSENQKDYLGWYQQKPGQTPKPLIYWATNRHTGVPDRFTGSGSGTDFTLIISSVQAEDLADYYCGQYLVYPFTFGPGTKLELK
Does B3 bind [1]?
Result: binds

What about the kon (canine PD-L1-His) of the same binder?
The kon was 2.42e+06 M⁻¹ s⁻¹.

B4: rat-canine chimeric anti-PD-L1 antibody c4G12 (antibody, V domains shown)
VH: B3 VH
VL: DIAITQSPSSVAVSVGETVTLSCKSSQSLLYSENQKDYLGWYQQKPGQTPKPLIYWATNRHTGVPDRFTGSGSGTDFTLIISSVQAEDLADYYCGQYLVYPFTFGPGTKLELKQ
notes: 4G12 variable regions on canine IgG-D (equivalent to human IgG4) heavy and canine lambda light constant regions
Which results are given for B4?
kon (canine PD-L1-His): 3.14e+06 M⁻¹ s⁻¹; binding result [2]: binds
